Reference: patent US20040038338A1, “Influence of LRP cytoplasmic domain on Abeta production” (priority 2001, published 2004)
Entries after “also recorded” stand apart in the source; their conditions may differ.

What was measured:
[1] = tested on: APP processing in CHO 13-5-1 cells; assay: Transient expression of LRP-CT constructs in LRP deficient CHO 13-5-1 cells, APP-CTF and APPs by immunoblotting; format: cell-based; conditions: LRP−/− CHO 13-5-1 cells; compared to control levels
Procedure: (§1) Mouse fibroblasts deficient in LRP (LRP−/−; PEA 13) and corresponding LRP expressing control cells (LRP±; PEA 10) were obtained from American Type Culture Collection (Rockville, Md., USA) and cultured as described previously (Kang et al., 2000). LRP deficient CHO cell line (13-5-1), CHO cell line expressing a LRP trafficking mutant (14-2-1), and corresponding CHO K1 control cells (kind gift of Dr. S. Leppla) were grown in alpha DMEM supplemented with 10% fetal bovine serum (FitzGerald et al., 1995). Human APP695 and APP751 were inserted into the pBabepuro retroviral expression vector (Morgenstern and Land, 1990) and transferred into GP+E86 packaging cell line. Stable transformants were selected with puromycin (5 μg/ml). After infection with recombinant viruses, mouse fibroblasts were selected with puromycin (2.5 μg/ml)and analyzed after clonal selection for equal APP expression. […] After infection with recombinant viruses, LRP−/− mouse fibroblasts were selected with hygromycin (2.5 μg/ml) and analyzed (LRP−/−CT). […]
(§2) For detection of intracellular proteins, cell extracts were prepared using an NP40 lysis buffer. […] Western blotting was carried out with the indicated antibodies and detected by enhanced chemiluminescence (Pierce). Quantitation of the chemiluminescence signal was carried out with a CCD camera imaging system (GeneGnome, Syngene, Frederick, Md.).

[2] = tested on: Aβ; assay: Aβ ELISA of medium from LRP−/− fibroblasts expressing LRP-CT; format: cell-based, mouse; conditions: LRP-CT expressed in LRP−/− cells transfected with APP751; 72 hour collection; compared to LRP± cells
Procedure: Media from LRP−/−, LRP± LRP−/−CT fibroblasts was collected after an incubation period of 72 hours in serum free IS-CHO medium. Debris was removed by centrifugation (13,000 rpm for 20 min) and the supernatants were subjected to Aβ40 quantification using a standard sandwich ELISA described previously (Kang et al., 2000).

[3] = tested on: cell surface APP; assay: Cell surface APP by iodinated 1G7 antibody at 4° C.; format: cell-based, mouse; conditions: LRP-CT expressed in LRP−/− cells expressing APP751
Procedure: To measure APP surface expression or internalization of surface APP, iodinated 1G7 monoclonal antibody was added to the cells in triplicate exactly as described previously (Koo et al., 1996). For the measurement of cell surface APP, the iodinated antibody was added to APP transfected LRP± and LRP−/− fibroblasts at 4° C. for 30 min followed by extensive washes. Specific binding was calculated after subtraction of the radioactivity obtained from parallel cultures of untransfected LRP± and LRP−/− fibroblasts, respectively. The radioactivity was then normalized to the rate of production of APP, which was determined in parallel cultures. The latter cells were metabolically labeled as described before and immunoprecipitated with polyclonal APP antibody to the C-terminus (CT15). Immunoprecipitates were subjected to SDS-PAGE, gels were dried and the APP signal was quantified by phosphor imaging.

[4] = tested on: APP processing; assay: Restoration of APP processing in LRP deficient cells (summary statements); format: cell-based; conditions: construct expressed in LRP deficient cells
[5] = tested on: APP internalization; assay: Internalization of cell surface APP by iodinated 1G7 antibody at 37° C.; format: cell-based, mouse; conditions: LRP-CT expressed in APP751 expressing LRP−/− cells; 30 min at 37° C.; compared to LRP± cells
Procedure: To measure internalization of cell surface APP, iodinated 1G7 antibody was added to confluent cultures of LRP±, LRP−/−, or LRP−/−CT fibroblasts stably transfected with APP695 or APP751 at 37° C. for 30 min. After incubation, cells were rapidly chilled on ice, and the reaction was quenched by the addition of ice-cold binding medium. Chilled cells were extensively washed and remaining surface antibody was detached by two acid washes. The cells were then lysed and collected for analysis. Acid-labile and acid-resistant radioactivity represents the surface and internalized pools of APP, respectively. Specific binding was determined after subtraction of the radioactive counts obtained from parallel cultures of untransfected LRP± and LRP−/− fibroblasts. The ratio of acid-resistant to acid-labile counts therefore provided a measure of the internalized versus cell surface pools of APP. All experiments in this study were repeated one to three times. […]
RESULTS: An APP internalization assay was performed in LRP-deficient cells expressing either APP695 or APP751 using a protocol established in Inventors' laboratory in which iodinated APP monoclonal antibody (1G7) was added to cultured cells at 37° C. for 30 minutes [Koo E H and Squazzo S L. J. Biol. Chem. 269:17386-17389, 1994]. Internalized and cell surface APP can be rapidly determined by the acid resistant and acid labile pools, respectively. […]

[6] = tested on: APPs; assay: APPs in medium by immunoprecipitation-western blotting, LRP−/− fibroblasts expressing LRP-CT constructs; format: cell-based, mouse; conditions: construct expressed in LRP−/− fibroblasts expressing APP751; compared to LRP± control cells
Procedure: as §1, §2

[7] = tested on: Aβ secretion; assay: Aβ secretion, transient expression of LRP-CT in N2A mouse neuroblastoma cells; format: cell-based
[8] = tested on: Aβ secretion; assay: Aβ secretion, transient expression of LRP-CT in human glioma cells; format: cell-based
[9] = molecular target: T1, APP (Homo sapiens, UniProt P05067); assay: APP and LRP co-immunoprecipitation; format: binding; conditions: transfected cells
T1 construct: expressed in transfected cells

[10] = tested on: Aβ secretion; assay: Aβ secretion from APP751-expressing CHO cells transfected with LRP-CT; format: cell-based; conditions: LRP-CT overexpressed in APP751-expressing CHO cells (LRP +/+)
[11] = tested on: APP-CTF; assay: APP-CTF levels by immunoblotting (CT15) after expression of LRP-CT constructs in LRP−/− fibroblasts; format: cell-based, mouse; conditions: construct expressed in LRP−/− fibroblasts expressing APP751; compared to LRP± control cells
Procedure: as §1, §2

B1: LRP-CT: last 370 amino acids of the LRP β-subunit, transmembrane domain and entire cytoplasmic region, with signal peptide (protein)
chain: KRLDNGTCVPVPSPTPPPDAPRPGTCNLQCFNGGSCFLNARRQPKCRCQPRYTGDKCELDQCWEHCRNGGTCAASPSGMPTCRCPTGFTGPKCTQQVCAGYCANNSTCTVNQGNQPQCRCLPGFLGDRCQYRQCSGYCENFGTCQMAADGSRQCRCTAYFEGSRCEVNKCSRCLEGACVVNKQSGDVTCNCTDGRVAPSCLTCVGHCSNGGSCTMNSKMMPECQCPPHMTGPRCEEHVFSQQQPGHIASILIPLLLLLLLVLVAGVVFWYKRRVQGAKGFQHQRMTNGAMNVEIGNPTYKMYEGGEPDDVGGLLDADFALDPDKPTNFTNPVYATLYMGGHGSRHSLASTDEKRELLGRGPEDEIGDPLA
- deficiencies in APP processing [1]: able to restore the deficiencies in APP processing in LRP−/− CHO 13-5-1 cells to control levels
- Aβ level in medium [2]: restored to control level present in LRP± control cells; also recorded: restored the Aβ levels back to control conditions; also recorded: can be restored
- amount of cell surface APP [3]: did not alter the amount of cell surface APP
- APP processing steps altered in the absence of LRP [4]: can be restored; also recorded: partial to full restoration
- APP internalization from the cell surface [5]: largely restored to control level; also recorded: restored to almost control levels; also recorded: can be restored; also recorded: similarly restored; also recorded: partially restored
- levels of APPs in medium (APPs secretion) [6]: restored the levels of APPs back to the levels seen in APP751 overexpressing cells; also recorded: restored to control levels; also recorded: restores the abnormal levels of APPs; also recorded: restored to normal levels; also recorded: can be restored
- Aβ secretion [7]: likewise reduced Aβ secretion
- Aβ secretion [8]: likewise reduced Aβ secretion
- co-immunoprecipitation with APP [9]: can not only co-IP APP with LRP, but also with LRP-CT; also recorded: APP complexes with LRP-CT
- Aβ secretion [10]: inhibited Aβ secretion; also recorded: dramatically inhibited; also recorded: reduce Aβ secretion in proportion to level of expression
- levels of APP-CTF [11]: restored to levels similar to LRP± cells; also recorded: restored to control levels; also recorded: can be restored; also recorded: restored to the level seen in LRP± cells
